Measurements: patent US11278600B2, “Human alpha-galactosidase variants” (Codexis, Inc., priority 2014, dated 2022)

Tests used:
Type in all cases: biochemical
[1] = HTP-analysis of yeast culture supernatants, no challenge (MUGal hydrolysis); conditions: activity of the variant/activity of WT GLA (SEQ ID NO: 5), yeast supernatant
How it was run: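 GLA variants were expressed in INVSc1 yeast grown in SD-Ura broth with glucose at 30° C., and culture supernatants were collected after 66-84 h. Supernatant was mixed with McIlvaine buffer pH 4.8 and MUGal (2 mM stock) in 50 mM citrate, 200 mM KCl, pH 4.6, incubated at 37° C. for 30-180 minutes, then quenched with sodium carbonate.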

[2] = HTP-analysis of supernatants pretreated with acid (MUGal hydrolysis); conditions: challenge at pH 4.2; activity of the variant/activity of WT GLA (SEQ ID NO: 5); yeast supernatant
How it was run: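 Fluorescence of MUGal hydrolysis (Ex. 355 nm, Em. 448 nm) is read after sodium carbonate quench. The enzyme source is INVSc1 yeast culture supernatant, first exposed to pH 3.3-4.3 McIlvaine buffer at 37° C. for 1-3 h, then reacted at pH 4.8 for 30-180 minutes.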

[3] = HTP-analysis of supernatants pretreated with base (MUGal hydrolysis); conditions: challenge at pH 7.1; activity of the variant/activity of WT GLA (SEQ ID NO: 5); yeast supernatant
How it was run: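 Fluorescence of released 4-MU (Ex 355 nm, Em 448 nm) after carbonate quench reports MUGal hydrolysis by GLA variants secreted from INVSc1 yeast. Before the acidic (pH 4.3-4.8) 30-180 min reaction at 37° C, supernatants had been pre-incubated at pH 7.0-9.7 for 1-18 h at 37° C.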

B1: 106 (protein)
chain: LDNGLARTPTMGWLHWERFMCNLDCQEEPDSCISEKLFMEMAELMVSEGWKDAGYEYLCIDDCWMAPQRDSEGRLQADPQRFPHGIRQLANYVHSKGLKLGIYADVGNKTCAGFPGSFGYYDIDAQTFADWGVDLLKFDGCYCDSLENLADGYKHMSLALNRTGRSIVYSCEWPLYMWPFQKPNYTEIRQYCNHWRNFADIDDSWKSIKSILDWTSFNQERIVDVAGPGGWNDPDMLVIGNFGLSWNQQVTQMALWAIMAAPLFMSNDLRHISPQAKALLQDKDVIAINQDPLGKQGYQLRQGDNFEVWERPLSGLAWAVAMINRQEIGGPRSYTIAVASLGKGVACNPACFITQLLPVKRKLGFYEWTSRLRSHINPTGTVLLQLENTMQMSRDLLL
modifications: Synthetic Polypeptide sequence of Variant No. 106 of mature Human GLA
Relative Activity of GLA Variants After No Challenge (NC) [1]: ++ (++ = >1.5 to 2.5 relative activity over WT GLA (SEQ ID NO: 5))
Relative Activity of GLA Variants After Challenge at pH 4.2 [2]: ++ (++ = >1.5 to 2.5 relative activity over WT GLA (SEQ ID NO: 5))
Relative Activity of GLA Variants After Challenge at pH 7.1 [3]: +++ (+++ = >2.5 relative activity over WT GLA (SEQ ID NO: 5))

B2: 108 (protein)
chain: LDNGLARTPTMGWLHWERFMCNLDCQEEPDSCISEKLFMEMAELMVSEGWKDAGYEYLCIDDCWMAPQRDSEGRLQADPQRFPHGIRQLANYVHSKGLKLGIYADVGNKTCAGFPGSFGYYDIDAQTFADWGVDLLKFDGCYCDSLENLADGYKHMSLALNRTGRSIVYSCEWPLYMWPFQKPNYTEIRQYCNHWRNFADIDDSWKSIKSILDWTSFNQERIVDVAGPGGWNDPDMLVIGNFGLSWNQQVTQMALWAIMAAPLFMSNDLRHISPQAKALLQDKDVIAINQDPLGKQGYQLRQGDNFEVWERPLSGLAWAVAMINRQEIGGPRSYTIAVASLGKGVACNPACFITQLLPVKRKLGFYEWTSRLRSHINPTGTVLLQLENTMQMSTDLLL
modifications: Synthetic Polypeptide sequence of Variant No. 108 of mature Human GLA
Relative Activity of GLA Variants After No Challenge (NC) [1]: +++ (+++ = >2.5 relative activity over WT GLA (SEQ ID NO: 5))
Relative Activity of GLA Variants After Challenge at pH 4.2 [2]: +++ (+++ = >2.5 relative activity over WT GLA (SEQ ID NO: 5))
Relative Activity of GLA Variants After Challenge at pH 7.1 [3]: +++ (+++ = >2.5 relative activity over WT GLA (SEQ ID NO: 5))

B3: 112 (protein)
chain: LDNGLARTPTMGWLHWERFMCNLDCQEEPDSCISEKLFMEMAELMVSEGWKDAGYEYLCIDDCWMAPQRDSEGRLQADPQRFPHGIRQLANYVHSKGLKLGIYADVGNKTCAGFPGSFGYYDIDAQTFADWGVDLLKFDGCYCDSLENLADGYKHMSLALNRTGRSIVYSCEWPLYMWPFQKPNYTEIRQYCNHWRNFADIDDSWKSIKSILDWTSFNQERIVDVAGPGGWNDPDMLVIGNFGLSWNQQVTQMALWAIMAAPLFMSNDLRHISPQAKALLQDKDVIAINQDPLGKQGYQLRQGDNFEVWERPLSGLAWAVAMINRQEIGGPRSYTIAVASLGKGVACNPACFITQLLPVKRKLGFYEWTSRLRSHINPTGTVLLQLENTMQMSKDLIL
modifications: Synthetic Polypeptide sequence of Variant No. 112 of mature Human GLA
Relative Activity of GLA Variants After No Challenge (NC) [1]: + (+ = 0.5 to 1.5 relative activity over WT GLA (SEQ ID NO: 5))
Relative Activity of GLA Variants After Challenge at pH 4.2 [2]: ++ (++ = >1.5 to 2.5 relative activity over WT GLA (SEQ ID NO: 5))
Relative Activity of GLA Variants After Challenge at pH 7.1 [3]: + (+ = 0.5 to 1.5 relative activity over WT GLA (SEQ ID NO: 5))

B4: 107 (protein)
chain: LDNGLARTPTMGWLHWERFMCNLDCQEEPDSCISEKLFMEMAELMVSEGWKDAGYEYLCIDDCWMAPQRDSEGRLQADPQRFPHGIRQLANYVHSKGLKLGIYADVGNKTCAGFPGSFGYYDIDAQTFADWGVDLLKFDGCYCDSLENLADGYKHMSLALNRTGRSIVYSCEWPLYMWPFQKPNYTEIRQYCNHWRNFADIDDSWKSIKSILDWTSFNQERIVDVAGPGGWNDPDMLVIGNFGLSWNQQVTQMALWAIMAAPLFMSNDLRHISPQAKALLQDKDVIAINQDPLGKQGYQLRQGDNFEVWERPLSGLAWAVAMINRQEIGGPRSYTIAVASLGKGVACNPACFITQLLPVKRKLGFYEWTSRLRSHINPTGTVLLQLENTMQMSSDLLL
modifications: Synthetic Polypeptide sequence of Variant No. 107 of mature Human GLA
Relative Activity of GLA Variants After No Challenge (NC) [1]: +++ (+++ = >2.5 relative activity over WT GLA (SEQ ID NO: 5))
Relative Activity of GLA Variants After Challenge at pH 4.2 [2]: +++ (+++ = >2.5 relative activity over WT GLA (SEQ ID NO: 5))
Relative Activity of GLA Variants After Challenge at pH 7.1 [3]: +++ (+++ = >2.5 relative activity over WT GLA (SEQ ID NO: 5))

B5: 110 (protein)
chain: LDNGLARTPTMGWLHWERFMCNLDCQEEPDSCISEKLFMEMAELMVSEGWKDAGYEYLCIDDCWMAPQRDSEGRLQADPQRFPHGIRQLANYVHSKGLKLGIYADVGNKTCAGFPGSFGYYDIDAQTFADWGVDLLKFDGCYCDSLENLADGYKHMSLALNRTGRSIVYSCEWPLYMWPFQKPNYTEIRQYCNHWRNFADIDDSWKSIKSILDWTSFNQERIVDVAGPGGWNDPDMLVIGNFGLSWNQQVTQMALWAIMAAPLFMSNDLRHISPQAKALLQDKDVIAINQDPLGKQGYQLRQGDNFEVWERPLSGLAWAVAMINRQEIGGPRSYTIAVASLGKGVACNPACFITQLLPVKRKLGFYEWTSRLRSHINPTGTVLLQLENTMQMSKDLDL
modifications: Synthetic Polypeptide sequence of Variant No. 110 of mature Human GLA
Relative Activity of GLA Variants After No Challenge (NC) [1]: +++ (+++ = >2.5 relative activity over WT GLA (SEQ ID NO: 5))
Relative Activity of GLA Variants After Challenge at pH 4.2 [2]: ++ (++ = >1.5 to 2.5 relative activity over WT GLA (SEQ ID NO: 5))
Relative Activity of GLA Variants After Challenge at pH 7.1 [3]: +++ (+++ = >2.5 relative activity over WT GLA (SEQ ID NO: 5))

B6: 34 (protein)
chain: LDNGLARTPTMGWLHWERFMCNLDCQEEPDSCISEKLFMEMAELMVSEGWKDAGYEYLCIDDCWMAPQRDSEGRLQADPQRFPHGIRQLANYVHSKGLKLGIYADVGNKTCAGFPGSFGYYDIDAQTFADWGVDLLKFDGCYCDSLENLADGYKHMSLALNRTGRSIVYSCEWPLYMWPFQKPNYTEIRQYCNHWRNFADIDDSWKSIKSILDWTSFNQERIVDVAGPGGWNDPDMLVIGNFGLSWNQQVTQMALWAIMAAPLFMSNDLRHISPQAKALLQDKDVIAINQDPLGKQGYQLRQGDNFEVWERPLSGLAWAVAMINRQEIGGPRSYTIPVASLGKGVACNPACFITQLLPVKRKLGFYEWTSRLRSHINPTGTVLLQLENTMQMSKDLLL
modifications: Synthetic Polypeptide sequence of Variant No. 34 of mature Human GLA
Relative Activity of GLA Variants After No Challenge (NC) [1]: + (+ = 0.5 to 1.5 relative activity over WT GLA (SEQ ID NO: 5))
Relative Activity of GLA Variants After Challenge at pH 4.2 [2]: ++ (++ = >1.5 to 2.5 relative activity over WT GLA (SEQ ID NO: 5))
Relative Activity of GLA Variants After Challenge at pH 7.1 [3]: ++ (++ = >1.5 to 2.5 relative activity over WT GLA (SEQ ID NO: 5))

B7: 111 (protein)
chain: LDNGLARTPTMGWLHWERFMCNLDCQEEPDSCISEKLFMEMAELMVSEGWKDAGYEYLCIDDCWMAPQRDSEGRLQADPQRFPHGIRQLANYVHSKGLKLGIYADVGNKTCAGFPGSFGYYDIDAQTFADWGVDLLKFDGCYCDSLENLADGYKHMSLALNRTGRSIVYSCEWPLYMWPFQKPNYTEIRQYCNHWRNFADIDDSWKSIKSILDWTSFNQERIVDVAGPGGWNDPDMLVIGNFGLSWNQQVTQMALWAIMAAPLFMSNDLRHISPQAKALLQDKDVIAINQDPLGKQGYQLRQGDNFEVWERPLSGLAWAVAMINRQEIGGPRSYTIAVASLGKGVACNPACFITQLLPVKRKLGFYEWTSRLRSHINPTGTVLLQLENTMQMSKDLHL
modifications: Synthetic Polypeptide sequence of Variant No. 111 of mature Human GLA
Relative Activity of GLA Variants After No Challenge (NC) [1]: ++ (++ = >1.5 to 2.5 relative activity over WT GLA (SEQ ID NO: 5))
Relative Activity of GLA Variants After Challenge at pH 4.2 [2]: ++ (++ = >1.5 to 2.5 relative activity over WT GLA (SEQ ID NO: 5))
Relative Activity of GLA Variants After Challenge at pH 7.1 [3]: ++ (++ = >1.5 to 2.5 relative activity over WT GLA (SEQ ID NO: 5))

B8: 113 (protein)
chain: LDNGLARTPTMGWLHWERFMCNLDCQEEPDSCISEKLFMEMAELMVSEGWKDAGYEYLCIDDCWMAPQRDSEGRLQADPQRFPHGIRQLANYVHSKGLKLGIYADVGNKTCAGFPGSFGYYDIDAQTFADWGVDLLKFDGCYCDSLENLADGYKHMSLALNRTGRSIVYSCEWPLYMWPFQKPNYTEIRQYCNHWRNFADIDDSWKSIKSILDWTSFNQERIVDVAGPGGWNDPDMLVIGNFGLSWNQQVTQMALWAIMAAPLFMSNDLRHISPQAKALLQDKDVIAINQDPLGKQGYQLRQGDNFEVWERPLSGLAWAVAMINRQEIGGPRSYTIAVASLGKGVACNPACFITQLLPVKRKLGFYEWTSRLRSHINPTGTVLLQLENTMQMSKDLQL
modifications: Synthetic Polypeptide sequence of Variant No. 113 of mature Human GLA
Relative Activity of GLA Variants After No Challenge (NC) [1]: ++ (++ = >1.5 to 2.5 relative activity over WT GLA (SEQ ID NO: 5))
Relative Activity of GLA Variants After Challenge at pH 4.2 [2]: + (+ = 0.5 to 1.5 relative activity over WT GLA (SEQ ID NO: 5))
Relative Activity of GLA Variants After Challenge at pH 7.1 [3]: +++ (+++ = >2.5 relative activity over WT GLA (SEQ ID NO: 5))
